Assays:
[1] = biological target: T1, human CD98hc endogenously expressed on HCMEC/D3 cells (human); experiment: FACS, hybridoma supernatant
T1 construct: human brain endothelial cell line
T1 chain: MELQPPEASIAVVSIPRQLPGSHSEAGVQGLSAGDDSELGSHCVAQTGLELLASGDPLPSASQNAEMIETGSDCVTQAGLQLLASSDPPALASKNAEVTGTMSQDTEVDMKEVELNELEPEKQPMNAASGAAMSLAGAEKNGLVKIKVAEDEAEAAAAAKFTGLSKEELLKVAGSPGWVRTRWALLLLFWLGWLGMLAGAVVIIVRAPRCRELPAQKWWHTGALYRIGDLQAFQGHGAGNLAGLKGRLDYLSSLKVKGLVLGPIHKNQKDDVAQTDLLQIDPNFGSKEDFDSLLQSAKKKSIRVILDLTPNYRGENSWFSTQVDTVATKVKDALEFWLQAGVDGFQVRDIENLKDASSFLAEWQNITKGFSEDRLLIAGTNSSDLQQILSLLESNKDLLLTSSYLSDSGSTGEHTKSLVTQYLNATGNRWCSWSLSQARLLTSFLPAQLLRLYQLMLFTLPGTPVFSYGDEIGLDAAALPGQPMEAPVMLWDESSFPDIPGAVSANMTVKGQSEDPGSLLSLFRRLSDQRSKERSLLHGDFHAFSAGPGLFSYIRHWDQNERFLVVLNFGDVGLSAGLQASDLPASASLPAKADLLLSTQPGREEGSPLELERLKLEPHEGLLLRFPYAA

[2] = biological target: T2, Full length mouse CD98hc on CHO cells (mouse, UniProt P10852 1-526); experiment: FACS, hybridoma supernatant
T2 construct: CHO cells stably overexpressing it; also called CHO-mouse CD98hc; CHO-mCD98hc
T2 sequence: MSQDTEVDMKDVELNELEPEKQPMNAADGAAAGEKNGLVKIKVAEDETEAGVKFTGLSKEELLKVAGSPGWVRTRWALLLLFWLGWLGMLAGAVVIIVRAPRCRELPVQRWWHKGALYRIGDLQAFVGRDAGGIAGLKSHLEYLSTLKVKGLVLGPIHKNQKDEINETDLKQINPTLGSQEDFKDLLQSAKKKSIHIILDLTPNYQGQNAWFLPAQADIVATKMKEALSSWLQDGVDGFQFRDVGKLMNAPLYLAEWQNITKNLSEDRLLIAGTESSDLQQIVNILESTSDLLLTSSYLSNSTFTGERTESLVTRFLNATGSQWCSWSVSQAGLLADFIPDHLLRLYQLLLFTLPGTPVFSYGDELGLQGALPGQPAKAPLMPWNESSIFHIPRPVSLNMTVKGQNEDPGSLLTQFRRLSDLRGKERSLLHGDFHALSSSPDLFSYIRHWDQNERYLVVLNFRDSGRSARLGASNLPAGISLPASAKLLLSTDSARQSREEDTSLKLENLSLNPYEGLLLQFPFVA

[3] = biological target: T3, Full length human CD98hc on CHO cells (human); experiment: FACS, hybridoma supernatant
T3 construct: CHO cells stably overexpressing it; also called CHO-human CD98hc; CHO-huCD98hc
T3 chain: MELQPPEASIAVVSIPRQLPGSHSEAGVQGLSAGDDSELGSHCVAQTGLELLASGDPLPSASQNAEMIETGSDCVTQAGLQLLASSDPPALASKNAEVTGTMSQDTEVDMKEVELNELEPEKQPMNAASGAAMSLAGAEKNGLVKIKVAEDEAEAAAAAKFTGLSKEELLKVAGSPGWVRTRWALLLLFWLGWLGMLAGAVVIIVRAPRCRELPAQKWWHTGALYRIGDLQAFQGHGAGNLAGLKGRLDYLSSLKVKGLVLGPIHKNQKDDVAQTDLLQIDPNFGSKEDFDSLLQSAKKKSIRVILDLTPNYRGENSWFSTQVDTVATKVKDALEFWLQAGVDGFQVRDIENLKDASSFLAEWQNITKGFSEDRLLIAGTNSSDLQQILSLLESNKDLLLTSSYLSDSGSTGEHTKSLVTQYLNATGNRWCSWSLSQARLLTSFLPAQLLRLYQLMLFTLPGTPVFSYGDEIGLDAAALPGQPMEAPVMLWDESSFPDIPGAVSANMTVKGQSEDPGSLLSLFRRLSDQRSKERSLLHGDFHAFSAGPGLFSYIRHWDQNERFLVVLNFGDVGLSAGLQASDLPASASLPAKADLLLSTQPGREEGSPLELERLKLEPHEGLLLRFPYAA

[4] = biological target: T4, Human TfR-AVI-His (control) (human, UniProt P02786 89-760); experiment: ELISA, hybridoma supernatant
T4 construct: control protein; also called Avi-His-tagged human TfR; human transferrin receptor
In short: (§1)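 Binding of hybridoma supernatants (30 min, room temperature) was read as 450 nm absorbance after TMB development and sulfuric acid quench. Antigens, Avi-His-tagged CD98hc from human, cyno or mouse plus human TfR, were captured at 1 μg/ml onto streptavidin-coated wells for 1 h.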

muCD98hc ECD Avi-His = biological target: T5, muCD98hc ECD Avi-His (mouse, UniProt P10852 100-526); experiment: ELISA, hybridoma supernatant
T5 construct: biotinylated on the Avi tag where captured on streptavidin; also called Mouse CD98-AVI-His; Mouse CD98hc-AVI-His
T5 sequence: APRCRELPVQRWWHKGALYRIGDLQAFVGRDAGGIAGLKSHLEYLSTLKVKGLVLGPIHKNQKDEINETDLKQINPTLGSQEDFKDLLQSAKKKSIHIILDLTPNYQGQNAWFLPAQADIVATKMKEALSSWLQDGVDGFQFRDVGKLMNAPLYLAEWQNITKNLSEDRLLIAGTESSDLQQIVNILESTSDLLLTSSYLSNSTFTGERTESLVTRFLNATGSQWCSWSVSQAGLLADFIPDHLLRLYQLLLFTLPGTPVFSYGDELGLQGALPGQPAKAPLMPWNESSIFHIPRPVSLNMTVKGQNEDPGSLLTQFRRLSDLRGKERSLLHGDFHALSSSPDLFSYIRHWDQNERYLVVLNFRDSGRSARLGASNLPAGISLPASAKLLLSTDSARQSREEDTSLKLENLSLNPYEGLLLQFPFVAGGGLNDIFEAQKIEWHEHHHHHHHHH
In short: as §1

T4 sequence (P02786 89-760 limits assumed): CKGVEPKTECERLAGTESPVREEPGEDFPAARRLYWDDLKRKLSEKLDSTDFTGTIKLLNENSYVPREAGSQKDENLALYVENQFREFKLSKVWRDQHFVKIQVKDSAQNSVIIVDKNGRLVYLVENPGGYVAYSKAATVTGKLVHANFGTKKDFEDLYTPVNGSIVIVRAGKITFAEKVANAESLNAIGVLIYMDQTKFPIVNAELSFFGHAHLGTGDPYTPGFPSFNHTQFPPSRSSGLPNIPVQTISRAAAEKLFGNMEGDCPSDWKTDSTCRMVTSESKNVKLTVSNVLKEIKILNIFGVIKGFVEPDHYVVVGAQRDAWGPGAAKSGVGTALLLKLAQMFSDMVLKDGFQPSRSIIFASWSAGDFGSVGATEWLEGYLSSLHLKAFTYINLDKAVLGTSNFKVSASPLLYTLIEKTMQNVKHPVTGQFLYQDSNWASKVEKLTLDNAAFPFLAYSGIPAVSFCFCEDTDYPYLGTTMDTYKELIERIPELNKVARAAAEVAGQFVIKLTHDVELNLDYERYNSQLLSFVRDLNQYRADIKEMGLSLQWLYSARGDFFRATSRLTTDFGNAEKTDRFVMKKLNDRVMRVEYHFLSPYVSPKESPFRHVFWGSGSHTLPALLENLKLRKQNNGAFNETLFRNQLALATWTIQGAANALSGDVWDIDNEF

| Binder | MFI ratio over secondary antibody [1] | MFI ratio over secondary antibody [2] | MFI ratio over secondary antibody [3] | OD450 [4] | OD450 (muCD98hc ECD Avi-His) |
| --- | --- | --- | --- | --- | --- |
| CD98HC.04.045 (antibody, V domains shown, hybridoma IgG) VH: QIQLVQSGPELKKPGETVKISCKASGYSITNFGMNWVKQAPGKGLKWMGWVNTYTGEPTYADDFKGRFAFSLETSASTASLQINNLKNEDTATYFCTRSVITYTMDYWGQGTSVTVSS VL: DIQLTQSPSSLSASLGERVSLTCRASQEISGYLSWLQQKPDGTIKRLIYAASTLDSGVPKRFSGSRSGSDYSLTISSLESEDFADYYCLQYASYPRTFGGGTKVEIK | 4 | 1.2 | 2.4 | 0.103 | 0.0764 |
| CD98HC.04.046 (antibody, V domains shown, hybridoma IgG) VH: QIQLVQSGPVLKKPGETVKISCKASGYTFTNFGMNWVKQAPGKGLKWMGWIDTYTREPTYVDDFKGRFAFSLETSVTTAYLQINDLKNEDSATYFCARGESHWYFDVWGAGTTVTVSS VL: QIVLTQSPAIMSASLGERVTMTCIVSSSVSSSYLYWYQQKPGSSPKLWIYSTSILASGVPGRFSGSGSGTSYSLTISSMEAEDAATYYCHQYHRSPPTFGGGTKLEIK | 147 | 1.2 | 27.7 | 0.0719 | 0.0817 |
| CD98HC.04.058 (antibody, V domains shown, hybridoma IgG) VH: QVQLQQSGAELVRPGVSVKISCKASGYTFTDHTMHWVKQSHARSLEWIGVISTYFGDASYNPKFKGKATMTVDKSSNTAYMELARLTSEDSAIYYCARVGGRLRLGYYFDYWGQGTTLTVSS VL: NIMMTQSPSSLAVSAGEKVTMNCKSSQTVLYSSNQKNYLAWYQQKPGQSPKLLIYWASTRESGVPDRFTGSGSGTDFTLTISSVQVEDLAVYYCHQYLSSYTFGGGTKLEIK | 158 | 1.2 | 33 | 0.0976 | 0.121 |
| CD98HC.04.062 (antibody, V domains shown, hybridoma IgG) VH: EVQLVESGGDLVKPGGSLKLSCTASRFAFSTYDMSWVRQTPEKRLEWVAYISSGGGSTYFPDTVKGRFTISRDNAKNTLYLQMSSLKSEDTAMYYCARQDGHYPWFPYWGQGTLVTVSA VL: DIVMSQSPSSLAVSVGEKVTMSCKSSQSLLYSGNQKTYLAWYQQKPGQSPKPLIYWASTRESGIPDRFTGSGSGTDFTLTISSVKAEDLAVYYCQQYYSYPPTFGAGTKLELK | 91.8 | 1.3 | 25.1 | 0.0561 | 0.0607 |
| CD98HC.04.063 (antibody, V domains shown, hybridoma IgG) VH: EVKLEESGGGLVQPGGSMILSCVASGFTFSNSWMNWVRQSPEKGLEWVAEIRLRSNNYATHYAESVKGRFTISRDDSKSTVYLQMNNLRAEDTGIYYCSRGDPGAYWGQGTLVTVSA VL: DIQMTQSSSYLSVSLGNRVTITCKASDHIKNWLAWFQQKPGNAPRLLISGATILETGVPSRFSGSGSGKDYTLSITSLQTEDVATYYCQQYWSTPYTFGGGTKLEIK | 124 | 1.2 | 34.4 | 0.0629 | 0.0738 |
| CD98HC.04.064 (antibody, V domains shown, hybridoma IgG) VH: QVQLQQPGAELVRPGASVKLSCKASGYTFTSYWMNWVRQRPGQGLEWIGLIDPSDSETHYNQMFKDRATLTVDKSSSTAYMQLSSLTSADPAVYYCARASYGKGYFDYWGQGTTLTVSS VL: not shown | 277 | 1.2 | 46.6 | 0.0639 | 0.073 |
| CD98HC.03.004 (antibody, V domains shown, hybridoma IgG) VH: DVQLQESGPGLVKPSQSLSLTCTVTGYSITNNYAWNWIRRFPGNKLEWMAYISYSGYTSYNPSLKSRISITRDTSKNQFFLQLNSVTTEDTATYYCTGYFYYYGGGSFDYWGQGTTLTVSS VL: QAVVTQESALTTSPGETVTLTCRSSTGAVTTSNFANWVQEKPDHLFTGLIRGSNNRAPGVPARFSGSLIGDKAALTITGARTEDEAIYFCALWYSDHWVFGGGTKLTVL | 189 | 1 | 34.4 | 0.0905 | 0.0938 |
| CD98HC.03.010 (antibody, V domains shown, hybridoma IgG) VH: EVQLQQSGTELVKPGASVKLSCTASGLDIKDTYLHWVKQRPEQGLEWIGKIDPANGNTKYNPKFQGKATITADTSSNTAYLQLSSLTSEDTAVHYCTTPYYSGSSYGDYWGQGTTLTVSS VL: QIVLTQSPAIMSASPGEKVTLTCSASSSVSSSYLYWYQQKPGSSPKLWIYSTSNLASGVPARFSGSGSGTSYSLTISSMEAEDAASYFCHQWSRYPLTFGAGTKLELK | 190 | 1 | 25.8 | 0.0588 | 0.0625 |

From US20250270341A1 (Alector, published 2025)
